According to patent US10487337B2, “Methods for monocot plant improvement” (Agresearch Limited, priority 2014, dated 2019):

What was measured:
ryegrass plants = assay: Leaf biomass analysis of grass transformants; assay type: in vivo; conditions: observed leaf growth, approximately 6 weeks
Method: (§1) An equal number (typically 4-10) of tillers were taken from WT and ryegrass plants transformed with Arabidopsis PPD under one of two green tissue promoters. Tillers were planted into plastic grow bags containing potting mix and pruned to be of equal height. […] The increase in leaf/shoot biomass can be quantified removing the attached above ground portion (leaves and shoots) and drying them at 65° C. for 48 hr then weighing the dry weights.
as §1, with “a constitutive promoter.” for “one of two green tissue promoters.”, “was” for “can be”, “weights (Table 2).” for “weights.”

NINJA = molecular target: T1, NINJA (Arabidopsis thaliana, UniProt Q9SV55); assay: Yeast two hybrid (Y2H) interaction with NINJA; assay type: binding; conditions: Y2H screening, PPD1 as bait
T1 construct: expressed in transfected cells; host or cells: yeast strain MaV203
T1 sequence (Q9SV55 with tags, fused parts or gaps): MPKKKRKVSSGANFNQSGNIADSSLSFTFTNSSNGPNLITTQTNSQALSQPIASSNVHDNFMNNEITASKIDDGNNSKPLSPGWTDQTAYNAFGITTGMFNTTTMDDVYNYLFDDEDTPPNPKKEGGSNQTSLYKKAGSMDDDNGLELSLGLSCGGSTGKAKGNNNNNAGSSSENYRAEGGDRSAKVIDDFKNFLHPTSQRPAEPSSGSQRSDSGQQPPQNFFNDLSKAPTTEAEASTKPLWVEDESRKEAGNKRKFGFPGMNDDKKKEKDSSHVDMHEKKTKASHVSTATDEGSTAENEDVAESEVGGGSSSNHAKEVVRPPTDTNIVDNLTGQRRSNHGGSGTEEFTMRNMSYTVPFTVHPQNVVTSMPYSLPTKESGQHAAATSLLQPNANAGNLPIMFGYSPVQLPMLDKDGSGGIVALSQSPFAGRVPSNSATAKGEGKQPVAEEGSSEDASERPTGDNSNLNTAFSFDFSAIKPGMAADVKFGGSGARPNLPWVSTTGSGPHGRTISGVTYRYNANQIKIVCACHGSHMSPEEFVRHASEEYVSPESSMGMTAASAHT
Description: The constructs for Y2H and BiFC assays were generated as follows. Arabidopsis DNA sequences encoding the open reading frames for; At4g14713 (PPD1) and truncation and deletion derivatives of PPD1: PPD1; PPD1Δppd (N-terminal truncation of sequences encoding aa 1-61), PPD1Δtify, (internal deletion of sequences encoding aa 154-186), PPD1Δjas*(C-terminal truncation of sequences encoding aa 229-313) (FIG. 5), At4g28910 (NINJA), At1g15750 (TPL), At1g75080 (BZR1), a synthetic PUAS-35S promoter, and sequences encoding GAL4DBD and c-myc fusion proteins were synthesised and sequence verified by GeneArt. Most sequences were supplied as clones in pENTR221 ready for Gateway cloning into yeast and plant expression vectors. The exception, a promoter sequence for in planta transcription activation assays, incorporating 5′ Xho1 and 3′ Nco1 restriction enzyme sites, was supplied cloned in pMA-RQ. Plasmids for the transient LUC reporter assay: A synthetic promoter with 5×UAS GAL4 DNA binding sites upstream of a −105 bp CaMV35S promoter was cloned into the XhoI-NcoI sites within a dual luciferase construct pNWA62, which contains an intron-containing Firefly Luciferase gene (LUC) and 35Spro::Renilla Luciferase (REN) as an internal standard, to construct pAML7. […]

B1: PPD1: PEAPOD 1 protein of Arabidopsis thaliana, SEQ ID NO: 1 (protein, listed as Arabidopsis thaliana)
chain: MDVGVSPAKSILAKPLKLLTEEDISQLTREDCRKFLKDKGMRRPSWNKSQAIQQVLSLKALYEPGDDSGAGIFRKILVSQPVNPPRVTTTLIEPSNELEACGRVSYPEDNGACHRMDSPRSAEFSGGSGHFVSEKDGHKTTISPRSPAETSELVGQMTIFYSGKVNVYDGIPPEKARSIMHFAANPIDLPENGIFASSRMISKLISKEKMMELPQKGLEKANSSRDSGMEGQANRKVSLQRYREKRKDRKFSKAKKCPGVASSSLEMFLNCQPRMKAAYSQNLGCTGSPLHSQSPESQTKSPNLSVDLNSEGI
For B1, the “leaf biomass/growth/length/branching compared to WT plants” value (ryegrass plants; constitutive promoter) was “increase in leaf biomass/growth/length/branching”, the “leaf biomass/growth/length/branching compared to WT plants” value (ryegrass plants; green tissue promoter) was “increase in leaf biomass/growth/length/branching” and the “interaction with NINJA” value (NINJA) was “direct interactor”.
